One data set addresses Factor Va (UniProt P12259).
Another data set concerns the target FXa^I16M (human) (UniProt P00742). Description: cell-based or functional assay.
The target in another data set is FXa^I16T (human) (UniProt P00742). Description: cell-based or functional assay.
For another data set, the target named is FXa^V17M (human) (UniProt P00742). Briefly: cell-based or functional assay.
Another data set addresses FXa^V17S (human) (UniProt P00742). Description: cell-based or functional assay.
The target in another data set is FXa^V17T (human) (UniProt P00742). Description: cell-based or functional assay.
Data set [1] deals with wild-type Factor Xa (human) (UniProt P00742). Briefly: cell-based or functional assay.

Sequence of UniProt P12259 (P12259 29-2224): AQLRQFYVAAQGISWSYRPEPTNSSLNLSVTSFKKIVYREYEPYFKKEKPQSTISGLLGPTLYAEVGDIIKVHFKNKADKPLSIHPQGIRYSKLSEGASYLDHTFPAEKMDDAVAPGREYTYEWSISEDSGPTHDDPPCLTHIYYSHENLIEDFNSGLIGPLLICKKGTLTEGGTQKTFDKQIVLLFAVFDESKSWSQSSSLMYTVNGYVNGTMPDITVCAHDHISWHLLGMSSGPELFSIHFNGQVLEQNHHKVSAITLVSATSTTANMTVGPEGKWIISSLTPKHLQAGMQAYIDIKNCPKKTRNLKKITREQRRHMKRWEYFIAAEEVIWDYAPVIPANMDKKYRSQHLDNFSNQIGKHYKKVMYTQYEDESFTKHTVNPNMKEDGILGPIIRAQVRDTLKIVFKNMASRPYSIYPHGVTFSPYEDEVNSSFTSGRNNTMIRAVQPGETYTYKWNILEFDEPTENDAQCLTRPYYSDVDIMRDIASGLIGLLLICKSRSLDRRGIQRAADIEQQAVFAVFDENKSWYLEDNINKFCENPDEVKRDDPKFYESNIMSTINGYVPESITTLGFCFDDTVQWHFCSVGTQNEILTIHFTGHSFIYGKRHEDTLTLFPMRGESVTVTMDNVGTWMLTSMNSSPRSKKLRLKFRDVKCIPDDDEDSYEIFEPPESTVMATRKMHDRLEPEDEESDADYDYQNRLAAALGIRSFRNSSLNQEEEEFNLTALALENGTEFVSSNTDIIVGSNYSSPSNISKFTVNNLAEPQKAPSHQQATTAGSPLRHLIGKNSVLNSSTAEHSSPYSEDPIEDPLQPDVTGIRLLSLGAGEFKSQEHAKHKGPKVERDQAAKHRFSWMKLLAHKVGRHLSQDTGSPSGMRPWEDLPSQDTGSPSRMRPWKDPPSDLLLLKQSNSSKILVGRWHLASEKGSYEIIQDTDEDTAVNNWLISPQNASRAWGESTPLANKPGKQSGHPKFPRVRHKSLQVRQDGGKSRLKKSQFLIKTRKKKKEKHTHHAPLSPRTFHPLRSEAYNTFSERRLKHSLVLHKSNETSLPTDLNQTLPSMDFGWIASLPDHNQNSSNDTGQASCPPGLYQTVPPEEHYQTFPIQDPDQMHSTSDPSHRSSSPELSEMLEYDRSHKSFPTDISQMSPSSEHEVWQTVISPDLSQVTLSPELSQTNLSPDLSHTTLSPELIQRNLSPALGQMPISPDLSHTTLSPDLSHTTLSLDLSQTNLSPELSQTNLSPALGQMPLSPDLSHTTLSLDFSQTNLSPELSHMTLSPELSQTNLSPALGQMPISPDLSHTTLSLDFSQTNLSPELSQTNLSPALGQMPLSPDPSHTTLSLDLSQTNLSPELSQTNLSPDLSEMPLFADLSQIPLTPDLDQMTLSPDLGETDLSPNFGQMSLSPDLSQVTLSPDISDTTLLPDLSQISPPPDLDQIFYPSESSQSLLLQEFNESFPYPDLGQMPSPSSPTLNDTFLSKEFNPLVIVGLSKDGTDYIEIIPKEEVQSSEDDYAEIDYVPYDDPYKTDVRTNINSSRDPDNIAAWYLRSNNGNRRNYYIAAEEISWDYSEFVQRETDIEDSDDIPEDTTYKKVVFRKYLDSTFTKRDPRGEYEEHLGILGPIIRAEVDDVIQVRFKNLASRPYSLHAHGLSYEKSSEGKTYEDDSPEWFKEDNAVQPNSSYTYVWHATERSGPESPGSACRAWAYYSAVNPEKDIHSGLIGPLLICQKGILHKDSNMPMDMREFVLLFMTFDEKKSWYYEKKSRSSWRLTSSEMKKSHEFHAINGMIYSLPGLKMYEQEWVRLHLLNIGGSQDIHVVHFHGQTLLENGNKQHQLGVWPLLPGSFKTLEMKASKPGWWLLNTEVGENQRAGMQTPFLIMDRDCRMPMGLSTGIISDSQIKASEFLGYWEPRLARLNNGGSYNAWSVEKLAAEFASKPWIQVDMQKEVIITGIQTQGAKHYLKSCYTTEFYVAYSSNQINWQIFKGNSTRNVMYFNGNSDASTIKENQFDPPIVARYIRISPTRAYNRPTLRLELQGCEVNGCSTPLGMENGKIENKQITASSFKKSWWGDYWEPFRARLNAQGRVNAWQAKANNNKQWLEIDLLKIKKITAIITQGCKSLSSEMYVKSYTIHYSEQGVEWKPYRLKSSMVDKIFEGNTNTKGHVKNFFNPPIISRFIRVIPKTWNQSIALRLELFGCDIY

Take FXa^I16L: the “kinetics of prothrombin activation in the presence of FVa and anionic membranes (PCPS)” value with Factor Va is “demonstrated faster than wild-type kinetics”.
Same read-out and setting: the entry for FXa^I16M is “displayed similar to wild-type kinetics”.
Still for that read-out and setting: the result for FXa^V17M reads “demonstrated faster than wild-type kinetics”.
Consider “antithrombin III (from UniProt P01008 33-464)”, for which the Fold Difference (rate constant for inhibition by antithrombin, against wtFXa) with FXa^I16M (human) was 40 fold; in the data set with FXa^I16T (human), > 100 fold; with FXa^V17M (human) it was 14 fold; with FXa^V17S (human), > 100 fold; in the data set with FXa^V17T (human), 70 fold; in data set [1], 1 fold.
